Results taken from paper doi:10.1101/2025.05.27.656346.

Molecular target: β-gal 4-domain fragment 1-725 (E. coli)
Test: negative-stain EM

stoichiometry N: 4
Substance: β-gal 4-domain fragment 1-725 (domain or fragment)
